Laboratory results published in patent US7998940B2, “Aptamers to von Willebrand factor and their use as thrombotic disease therapeutics” (Archemix Corp., priority 2004, dated 2011).
Oligonucleotides are written 5' to 3', each unit as a sugar letter and its base; * is a phosphorothioate linkage, no mark a phosphodiester; rarer units and linkages stand in square brackets, end groups in braces. Plain capitals give the bases only. d = 2'-deoxy (DNA); r = 2'-OH (RNA); f = 2'-fluoro

B1: AMX206.E7: rRdY aptamer clone (nucleic acid)
chain: rGrGrArGdCrGdCrAdCdTdCrArGdCdCrAdCrGrGrArGdCrGdTdCrGrGdTrGrAdTrGrGrAdTdTrArGdCrGdCrGrGdCdTdCdCrGdTrGrGdTrAdCrAdCdCdTdTdTdCrGrAdCdCdTdCdTdCdTrGdCdTrArGdC
B2: AMX206.H9: rRdY aptamer clone (nucleic acid)
chain: rGrGrArGdCrGdCrAdCdTdCrArGdCdCrAdCrGrGrArGdCrGdTdCrGrGdTrGrAdTrGrGrAdTdTrArGdCrGdCrGrGdTdTdCdCrGdTrGrGdTrAdCrAdCdCdTdTdTdCrGrAdCdCdTdCdTdCdTrGdCdTrArGdC
B3: AMX205.F9: rRdY aptamer clone (nucleic acid)
chain: rGrGrArGdCrGdCrAdCdTdCrArGdCdCrAdCrGrGrArGdCrGdTdCrGrGdTrGrAdTrGrGrAdTdTrArGdCrGdCrGrGdCdTdCdCrGdTrGrGdTrAdCrGdCdCdTdTdTdCrGrAdCdCdTdCdTdCdTrGdCdTrArGdC
B4: AMX206.F9: rRdY aptamer clone (nucleic acid)
chain: rGrGrArGdCrGdCrAdCdTdCrArGdCdCrAdCrGrGrArGdCrGdTdCrGrGdTrGrAdTrGrGrAdTdTrArGdCrGdCrGrGdCdTdCdCrGdTrGrGdTrAdCrAdCrAdTdTdTdCrGrAdCdCdTdCdTdCdTrGdCdTrArGdC
B5: AMX205.H9: rRdY aptamer clone (nucleic acid)
chain: rGrGrArGdCrGdCrAdCdTdCrArGdCdCrAdCrGrAdCrGrGdTrGrAdTrGrGrAdTdTrArGdCrGdCrGrGdTrGrGrArGrArArGrAdTrGdCrGdCdTrGdTdTrGdTdTdTdCrGrAdCdCdTdCdTdCdTrGdCdTrArGdC
B6: AMX205.D11: rRdY aptamer clone (nucleic acid)
chain: rGrGrArGdCrGdCrAdCdTdCrArGdCdCrAdCrGrGdCrAdCrGrAdCrGrGdTrGrAdTrGrArAdTdTrArGdCrGdCrGrGdTrGdTdCrGrGdTrGrGdTrGdTdCrAdTdTdTdCrGrAdCdCdTdCdTdCdTrGdCdTrArGdC
B7: AMX203.D6: rRdY aptamer clone (nucleic acid)
chain: rGrGrArGdCrGdCrAdCdTdCrArGdCdCrAdCrArGdTdTdCdTrGdTdCrGrGdTrGrAdTrGrArAdTdTrArGdCrGdCrGrArGrArGdCdTrGdTrGrGrGrAdCrGdTdTdTdCrGrAdCdCdTdCdTdCdTrGdCdTrArGdC
B8: AMX205.H8: rRdY aptamer clone (nucleic acid)
chain: rGrGrArGdCrGdCrAdCdTdCrArGdCdCrAdCrArArAdCrGrGrAdCrGrGdTrGrAdTrGrGrAdTdTrArAdCrGdCrGrGrGdTdTdTrAdTrGrGdCrArArGrGdTdTdTdCrGrAdCdCdTdCdTdCdTrGdCdTrArGdC
B9: AMX205.H11: rRdY aptamer clone (nucleic acid)
chain: rGrGrArGdCrGdCrAdCdTdCrArGdCdCrAdCrGrGdCrAdCrGrAdCrGrGdTrGrAdTrGrGrAdTdTrArGdCrGdCrGrGdTrGdTdCrGrGdTrGrGdTrGdTdCrAdTdTdTdCrGrAdCdCdTdCdTdCdTrGdCdTrArGdC
B10: AMX206.D7: rRdY aptamer clone (nucleic acid)
chain: rGrGrArGdCrGdCrAdCdTdCrArGdCdCrAdCrGrGdCrAdCrGrAdCrGrGdTrGrAdTrGrArAdTdTrArGdCrGdCrGrGdTrGdTdCrGrGdTrGrGdTrGdTdTrAdTdTdTdCrGrAdCdCdTdCdTdCdTrGdCdTrArGdC
B11: AMX206.A10: rRdY aptamer clone (nucleic acid)
chain: rGrGrArGdCrGdCrAdCdTdCrArGdCdCrAdCrGrGdCrAdTrGrAdCrGrGdTrGrAdTrGrArAdTdTrArGdCrGdCrGrGdTrGdTdCrGrGdTrGrGdTrGdTdCrAdTdTdTdCrGrAdCdCdTdCdTdCdTrGdCdTrArGdC
B12: AMX203.A1: rRdY aptamer clone (nucleic acid)
chain: rGrGrArGdCrGdCrAdCdTdCrArGdCdCrAdCrArGdTdTdCdTrGdTdCrGrGdTrGrAdTrGrArAdTdTrArGdCrGdCrGrGrGrArGdCdTrGdTrGrGrGrAdCrGdTdTdTdCrGrAdCdCdTdCdTdCdTrGdCdTrArGdC
B13: AMX201.G1: rRfY aptamer clone (nucleic acid)
chain: rGrGrArGfCrGfCrAfCfUfCrArGfCfCrAfCrGfCfUfCrGrGfUrGrGrGrGrArArAfUfUfUfUrArGfCfCfUrArAfUfUrGrGfCfUrAfCfUfUrGfUrGfCrGfUfUfUfCrGrAfCfCfUfCfUfCfUrGfCfUrArGfC
B14: AMX198.G1: rRfY aptamer clone (nucleic acid)
chain: rGrGrArGfCrGfCrAfCfUfCrArGfCfCrAfCrArAfCrAfCfUrArAfUrGrGrGrGrArArArGfUfUfCrArArGrGrAfUfUfCfUfUrGrAfCfCrGrGfUrGfCrGfUfUfUfCrGrAfCfCfUfCfUfCfUrGfCfUrArGfC

biological target: T1, human vWF A1 domain (SEQ ID NO 5) (Homo sapiens, UniProt P04275, T1381A); experiment: dot blot KD determination, human vWF A1 domain; details: read-out: Human A1 KD; rRdY aptamers; 6 point protein titration
T1 sequence (P04275 with tags, fused parts or gaps T1381A): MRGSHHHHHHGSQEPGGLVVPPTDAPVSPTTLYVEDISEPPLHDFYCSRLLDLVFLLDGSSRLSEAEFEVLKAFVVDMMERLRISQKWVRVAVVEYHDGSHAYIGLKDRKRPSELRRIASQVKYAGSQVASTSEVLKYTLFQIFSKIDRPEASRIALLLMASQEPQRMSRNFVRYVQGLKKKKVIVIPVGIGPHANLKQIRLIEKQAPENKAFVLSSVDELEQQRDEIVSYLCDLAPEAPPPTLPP
Protocol: For KD determination, aptamers transcripts were purified on 10% denaturing polyacrylamide gels, 5′ end labeled with γ-^32P ATP.
For KD determination, aptamers were purified on denaturing polyacrylamide gels and 5′-end labeled with γ-^32P ATP. A 6 point protein titration of human vWF A1 domain (SEQ ID NO 5) was used in the dot blot assay (333 nM, 100 nM, 33 nM, 10 nM, 3 nM, 0 nM) in 1×DPBS plus 0.1 mg/mL BSA at room temperature for 30 minutes. KD values were calculated by fitting the equation y=(max/(1+K/protein))+yint using KaleidaGraph (KaleidaGraph v. 3.51, Synergy Software).
KD values were calculated by fitting the equation y=(max/(1+K/protein))+yint using KaleidaGraph (KaleidaGraph v. 3.51, Synergy Software).
All minimer sequences were transcribed, gel-purified on 15% denaturing polyacrylamide gels, 5-^32 end-labeled with γ^32P ATP, and then desalted using two Centri-Spin 10 columns (Princeton Separations Cat. #CS-101, Adelphia, N.J.). For KD determination, minimer transcripts were tested for direct binding to full length human vWF (SEQ ID NO 7), human vWF A1 domain (SEQ ID NO 5), and rabbit vWF A1 domain (SEQ ID NO 6) using an 8 point protein titration from 0-300 nM (3 fold dilutions) in 1× Dulbecco's PBS containing 0.1 mg/mL BSA (in a final volume of 50 uL) for 30 minutes at room temperature and then applied to a nitrocellulose and nylon filter sandwich in a dot blot apparatus (Schleicher and Schuell, Keene, N.H.). KD values were calculated by fitting the equation y=(max/(1+K/protein))+yint using KaleidaGraph (KaleidaGraph v. 3.51, Synergy Software).
All minimer DNA sequences were chemically synthesized, 5-^32P end-labeled with γ-^32P ATP, and then desalted using two Centri-Spin 10 columns (Princeton Separations, Cat. #CS-101, Adelphia, N.J.). […] KD values were calculated by fitting the equation y=(max/(1+K/protein))+yint using KaleidaGraph (KaleidaGraph v. 3.51, Synergy Software).

B1 and B2 are within 1.5-fold of each other in Kd: 151 nM for the first, 109 nM for the second.

B3 and B4 are within 1.5-fold of each other in Kd: 145 nM for the first, 139 nM for the second.

B5 and B6 are within 1.5-fold of each other in Kd: 178 nM for the first, 124 nM for the second.

First: B7
Second: B8
The Kd of the first is 1.5-fold lower: 523 nM for the first, 788 nM for the second.

B9 and B10 are within 1.5-fold of each other in Kd: 144 nM for the first, 187 nM for the second.

First: B11
Second: B12
The Kd of the first is 10-fold lower: 111 nM for the first, 1150 nM for the second.

same assay, conditions: read-out: human A1 KD; rRfY aptamers; 8 point titration of human vWF A1 domain

Compared with B13, B14 is 4.2-fold lower in Kd: 190 nM for the first, 45 nM for the second.

biological target: T1, human vWF A1 domain (SEQ ID NO 5); experiment: 3-point dot blot screen, human vWF A1 domain; assay type: binding; details: rRdY aptamers; 100 nM human vWF A1 domain; ratio of fraction bound with target to without
Summary of the method: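 Values are ratios of aptamer fraction retained on nitrocellulose with 100 nM vWF A1 domain (human or rabbit) versus a no-protein control. Unique clones from rounds 9 and 12 pools were transcribed, desalted and 5'-32P labeled before this three-point dot blot screen.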

First: B1
Second: B2
The “Screen- Human/No Protein” value of the first is higher: 2.11 for the first, 1.98 for the second.

Compared with B3, B4 is higher in “Screen- Human/No Protein” value: 2.22 for the first, 2.98 for the second.

Going from B5 to B6, the “Screen- Human/No Protein” value falls from 2.36 to 2.22.

Going from B7 to B8, the “Screen- Human/No Protein” value rises from 1.92 to 2.04.

Compared with B9, B10 is higher in “Screen- Human/No Protein” value: 2.18 for the first, 2.19 for the second.

First: B11
Second: B12
The “Screen- Human/No Protein” value of the first is lower: 2.62 for the first, 2.99 for the second.

same assay, conditions: rRfY aptamers; 100 nM human vWF A1 domain; ratio of fraction bound with target to fraction bound without target

Compared with B13, B14 is lower in “Screen- Human/No Protein” value: 2.14 for the first, 1.89 for the second.

tested on: full length human vWF binding to lyophilized platelets; experiment: Full length human von Willebrand Factor platelet binding assay (FACS); assay type: cell-based; details: 5 nM full length human vWF, lyophilized platelets, botrocetin; both bounds in nM
Summary of the method: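 Aptamer titrations (0.1–1000 nM) pre-incubated with 5 nM full-length human vWF, then added to lyophilized platelets plus botrocetin for 15 min at 37 °C in PBS/0.5% BSA. Bound vWF detected by anti-vWF then FITC secondary antibody via flow cytometry MFI; % inhibition versus no-aptamer binding fitted for IC50.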

B1 was tested, and the “Inhibition of full length hVWF binding in FACS assay, IC50 range” value (“Inhibition of full length hVWF binding” below) was “no activity”.
For B2, the “Inhibition of full length hVWF binding” value was “no activity”.
In the case of B13, the “Inhibition of full length hVWF binding” value is reported as “no activity”.
In the case of B3, the “Inhibition of full length hVWF binding” value is reported as “no activity”.
With B4 the “Inhibition of full length hVWF binding” value was “no activity”.
In the case of B5, the “Inhibition of full length hVWF binding” value is reported as “no activity”.
In the case of B6, the “Inhibition of full length hVWF binding” value is reported as “no activity”.
For B7, the “Inhibition of full length hVWF binding” value was “no activity”.
B8 was tested, and the “Inhibition of full length hVWF binding” value was “no activity”.
B9 was tested, and the “Inhibition of full length hVWF binding” value was “no activity”.
B10 was tested, and the “Inhibition of full length hVWF binding” value was “no activity”.
For B14, the “Inhibition of full length hVWF binding” value was “no activity”.
For B11, the “Inhibition of full length hVWF binding” value was “no activity”.
For B12, the “Inhibition of full length hVWF binding” value was “no activity”.

tested on: rabbit vWF A1 domain (SEQ ID NO 6); experiment: 3-point dot blot screen, rabbit vWF A1 domain; assay type: binding; details: rRdY aptamers; 100 nM rabbit vWF A1 domain; ratio of fraction bound with target to without
Sequence (as listed by the source): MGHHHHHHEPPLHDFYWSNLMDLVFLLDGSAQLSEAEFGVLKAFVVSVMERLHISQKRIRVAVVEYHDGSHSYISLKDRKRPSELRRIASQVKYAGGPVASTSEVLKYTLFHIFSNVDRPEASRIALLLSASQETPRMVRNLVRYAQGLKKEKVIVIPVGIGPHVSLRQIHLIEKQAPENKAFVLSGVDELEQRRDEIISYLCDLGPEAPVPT
Summary of the method: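 Rabbit vWF A1 domain binding was screened by dot blot using three conditions: no target protein, human vWF, and rabbit vWF A1 domain at 100 nM (20 nM in the screen run twice). Radiolabeled aptamer bound to nitrocellulose was quantified, and results are expressed as the ratio of bound fraction with protein to bound fraction without protein.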

First: B1
Second: B2
The “Screen- Rabbit/No Protein” value of the first is lower: 2.26 for the first, 2.31 for the second.

Going from B3 to B4, the “Screen- Rabbit/No Protein” value rises from 2.47 to 3.00.

Compared with B5, B6 is lower in “Screen- Rabbit/No Protein” value: 3.14 for the first, 2.07 for the second.

Going from B7 to B8, the “Screen- Rabbit/No Protein” value rises from 1.57 to 2.84.

Going from B9 to B10, the “Screen- Rabbit/No Protein” value falls from 2.41 to 2.08.

First: B11
Second: B12
The “Screen- Rabbit/No Protein” value of the first is lower: 2.58 for the first, 2.67 for the second.

same assay, conditions: rRfY aptamers; 100 nM rabbit vWF A1 domain; ratio of fraction bound with target to without

First: B13
Second: B14
The “Screen- Rabbit/No Protein” value of the first is higher: 2.20 for the first, 1.90 for the second.
